{
  "source": "patent US6956104B2",
  "about": "“Protein Rim2” (JCR Pharmaceuticals Co., Ltd., priority 1999, dated 2005)",
  "key": {"cAMP-GEFII": {"biological_target": "T1, cAMP-GEFII (Mus musculus, UniProt Q9EQZ6)", "T1 construct": "A full-length cAMP-GEFII cDNA was subcloned into plasmid pFLAG-CMV-2 (Sigma); expressed in transfected cells; host or cells: COS-1 cells", "T1 sequence (Q9EQZ6 1-1011)": "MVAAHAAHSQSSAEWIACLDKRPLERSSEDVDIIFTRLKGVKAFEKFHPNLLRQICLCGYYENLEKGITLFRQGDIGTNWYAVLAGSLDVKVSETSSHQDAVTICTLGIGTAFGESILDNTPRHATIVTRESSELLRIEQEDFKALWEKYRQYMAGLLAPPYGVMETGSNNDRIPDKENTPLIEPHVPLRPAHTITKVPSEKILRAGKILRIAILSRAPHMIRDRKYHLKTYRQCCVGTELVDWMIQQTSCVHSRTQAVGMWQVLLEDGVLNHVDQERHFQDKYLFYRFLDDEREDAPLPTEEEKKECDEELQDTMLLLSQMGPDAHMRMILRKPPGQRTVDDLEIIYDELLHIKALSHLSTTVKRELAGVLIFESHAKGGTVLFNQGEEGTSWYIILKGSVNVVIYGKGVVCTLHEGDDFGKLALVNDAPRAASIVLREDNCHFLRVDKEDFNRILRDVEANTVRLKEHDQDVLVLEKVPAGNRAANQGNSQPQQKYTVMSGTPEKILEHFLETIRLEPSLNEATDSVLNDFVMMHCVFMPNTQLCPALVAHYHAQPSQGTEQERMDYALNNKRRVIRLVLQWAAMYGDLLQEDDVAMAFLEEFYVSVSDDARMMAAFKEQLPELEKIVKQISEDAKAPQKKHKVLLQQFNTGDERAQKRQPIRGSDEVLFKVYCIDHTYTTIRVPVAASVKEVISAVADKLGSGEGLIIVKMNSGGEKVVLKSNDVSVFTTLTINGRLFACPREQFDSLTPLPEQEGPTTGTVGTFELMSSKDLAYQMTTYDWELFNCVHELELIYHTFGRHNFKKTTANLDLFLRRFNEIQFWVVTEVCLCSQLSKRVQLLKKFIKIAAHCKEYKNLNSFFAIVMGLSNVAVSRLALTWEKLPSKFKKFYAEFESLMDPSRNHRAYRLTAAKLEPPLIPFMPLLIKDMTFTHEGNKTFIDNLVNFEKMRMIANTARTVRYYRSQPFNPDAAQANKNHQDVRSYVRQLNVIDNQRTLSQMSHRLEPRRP", "assay": "GST pull-down, interaction of Rim with cAMP-GEFII", "assay_type": "binding", "details": "lysates of COS-1 or MIN6 cells, or mouse brain homogenate; immunoblotting", "protocol": "Rim2 (amino acid residues 538-863) was expressed as a GST fusion protein and purified according to the method described in “Preparation and Test of GST fusion Protein”. A full-length cAMP-GEFII cDNA was subcloned into plasmid pFLAG-CMV-2 (Sigma). The resultant construct was transfected into COS-1 cells, using LipofectAMINE (Life Technologies). The lysate of the COS-1 cells was incubated with GST-Rim2 immobilized on glutathione beads for 2 hrs at 4° C. The complex thus obtained was washed with distilled water, separated by SDS-PAGE, and immunoblotted with an anti-FLAG M2 antibody (Sigma).\nThe lysate of MIN6 cells was incubated with GST-Rim2 and interaction between cAMP-GEFII and Rim2 was evaluated according to the method described in “Study on Interaction between Rim2 and cAMP-GEFII: I”, using a IgG antibody raised against the C-terminus (amino acid residues 1001-1011, […] (SEQ ID NO:5) of mouse cAMP-GEFII.\nAccording to the method described in “Preparation and Test of GST fusion Protein”, Rim1 partial sequence (530-806) was expressed as a GST fusion protein and then purified. The brain homogenate from three mice was incubated with GST-Rim1 immobilized on glutathione beads overnight at 4° C. cAMP-GEFII was detected as described in “Study on Interaction between Rim2 and cAMP-GEFII: II”."}, "[1]": {"biological_target": "T2, constitutively active Rab3A (Q81L) (Bos taurus, UniProt P11023, Q81L)", "T2 construct": "the full-length cDNA's for wild type mouse Rab3A and constitutively active bovine Rab3A (Q81L) were cloned into the yeast bait vector pBTM116; expressed in transfected cells", "T2 sequence (P11023 1-220 Q81L)": "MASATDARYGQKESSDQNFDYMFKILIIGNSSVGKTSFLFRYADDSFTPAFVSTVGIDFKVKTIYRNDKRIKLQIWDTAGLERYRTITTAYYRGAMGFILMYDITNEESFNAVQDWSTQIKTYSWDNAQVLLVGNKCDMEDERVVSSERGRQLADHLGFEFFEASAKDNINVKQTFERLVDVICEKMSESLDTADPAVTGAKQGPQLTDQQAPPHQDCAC", "assay": "Yeast two-hybrid assay with Rab3A", "assay_type": "binding, bovine", "details": "transactivation of liquid β-galactosidase activity", "from_the_text": "According to the method described in “Identification of Interacting molecules by YTH Method”, the full-length cDNA's for wild type mouse Rab3A and constitutively active bovine Rab3A (Q81L) were cloned into the yeast bait vector pBTM116.\nThe nucleotide sequence of zinc finger domains of bovine rabphilin3 (amino acid residues 1-283), rat Rim1 (amino acid residues 1-204) and mouse Rim2 (amino acid residues 1-345 were cloned into the prey vector pVP16. Liquid culture assay of […] activities was performed according to the manufacturer's instructions (Clontech). The activity values were obtained from 3 independent clones for each transformant and normalized by cell numbers determined as OD600."}, "Rab3A": {"test_system": "Rab3A", "assay": "In vitro binding of Rab3A to immobilized GST-Rim", "details": "immobilized on glutathione beads; anti-Rab3A immunoblotting", "protocol": "Lipid-modified Rab3A was purified from the membrane fraction of Sf9 cells expressing Rab3A. Rat Rim1 (amino acid residues 1-204) and mouse Rim2 (amino acid residues 1-345) were expressed as GST fusion proteins and purified. The GTP γS- or GDP βS-bound form of Rab3A was incubated for 90 min at 4° C. with GST-Rim1, or GST-Rim2 (30 pmol for each) immobilized on glutathione beads in reaction buffer. Rab3A was detected by immunoblotting with anti-Rab3A antibody."}},
  "data": [
    {"molecule": "Rim1: Rab3-interacting molecule, putative effector of the small G protein Rab3; rat, used as GST fusion (protein, left off: large carriers, rat, used as GST fusion) MSSAVGPRGPRPPTVPPPMQELPDLSHLTEEERNIIMAVMDRQKEEEEKEEAMLKCVVRDMAKPAACKTPRNAESQPHQPPLNIFRCVCVPRKPSSEEGGPERDWRLHQQFESYKEQVRKIGEEARRYQGEHKDDAPTCGICHKTKFADGCGHLCSYCRTKFCARCGGRVSLRSNNEDKVVMWVCNLCRKQQEILTKSGAWFFG", "values": [
      {"measurement": "interaction with cAMP-GEFII protein", "setting": "cAMP-GEFII", "result": "bound"},
      {"measurement": "interaction with active Rab3A (Q81L)", "setting": "[1]", "result": "interacts"},
      {"measurement": "binding to GTPγS- or GDP-bound form of Rab3A", "setting": "Rab3A", "result": "binds to the GTP-activated form"}
    ]}
  ]
}
